Measured values from US20070092518A1 (published 2007).

B1: SEQ ID NO 121 (Fab, V domains shown)
VH: EVQLVESGGGLVQPGGSLRLSCAASQFTFSNHYMNWVRQAPGKGLEWIGEIRSKSINSATHYAESVKGRFIISRDDNGNDLYLEMNSLKTEDTAEYYCAQNYYGSTYDYWGQGTLVTVS
VL: EIVLTQSPDFQSVTPKEKVTITCRASQFVGSSIHWYQQKPDQSPKLLIKYASESMSGVPSRFSGSGSGTDFTFTISSLEAEDAATYYCQQSHSWPFTFGPGTKVDIK
notes: Fab, E. coli lysate
B2: SEQ ID NO 11 (Fab, V domains shown)
VH: EVQLTESGGGLVQPGGSLRLSCAASGFIFSNHWMNWVRQAPGKGLEWIGEIRSKSINGATSYAESVKGRFIISRDDNKTSLYLEMNSLKTEDTAEYYCAQNYYGSTYDYWGQGTLVTVS
VL: EIVLTQSPDFQSVTPKEKVTITCRASQFVGSSIHWYQQKPDQSPKLLIKYASESMSGVPSRFSGSGSGTDFTFTISSLEAEDAATYYCQQSHSWPFTFGPGTKVDIK
notes: Fab, E. coli lysate
B3: SEQ ID NO 24 (Fab, V domains shown)
VH: EVQLTESGGGLVQPGGSLRLSCAASGSIFSNHWMNWVRQAPGKGLEWIGEIRSKSINGATSYAESVKGRFIISRDDNGNSLTLEMNSLKTEDTAEYYCAQNYYGSTPDYWGQGTLVTVS
VL: EIVLTQSPDFQSVTPKEKVTITCRASQFVGSSIHWYQQKPDQSPKLLIKYASESMSGVPSRFSGSGSGTDFTFTISSLEAEDAATYYCQQSHSWPFTFGPGTKVDIK
notes: Fab, E. coli lysate
B4: SEQ ID NO 8 (Fab, V domains shown)
VH: EVQLTESGGGLVQPGGSLRLSCRASGSTFSNHYMNWVRQAPGKGLEWIGEIRSKSINGATHYAESVKGRFIISRDGNGNDLYLEMNSLKTEDTAEYYCAQNYYGSTYDYWGQGTLVTVS
VL: EIVLTQSPDFQSVTPKEKVTITCRASQFVGSSIHWYQQKPDQSPKLLIKYASESMSGVPSRFSGSGSGTDFTFTISSLEAEDAATYYCQQSHSWPFTFGPGTKVDIK
notes: Fab, E. coli lysate
B5: SEQ ID NO 13 (Fab, V domains shown)
VH: EVQLTESGGGLVQPGGSLRLSCAASGSIFSNHYMNWVRQAPGKGLEWIGEIRSKSSNSATHYAESVKGRFIISRDDNKTDLYLEMNSLKTEDTAEYYCARNYYGSTYDYWGQGTLVTVS
VL: EIVLTQSPDFQSVTPKEKVTITCRASQFVGSSIHWYQQKPDQSPKLLIKYASESMSGVPSRFSGSGSGTDFTFTISSLEAEDAATYYCQQSHSWPFTFGPGTKVDIK
notes: Fab, E. coli lysate
B6: SEQ ID NO 18 (Fab, V domains shown)
VH: EVQLVESGGGLVQPGGSLRLSCRASQFTFSNHYMNWVRQAPGKGLEWIGEIRSKSSNGATSYAESVKGRFIISRDGNGNSLTLEMNSLKTEDTAEYYCARNYYGSTYDYWGQGTLVTVS
VL: EIVLTQSPDFQSVTPKEKVTITCRASQFVGSSIHWYQQKPDQSPKLLIKYASESMSGVPSRFSGSGSGTDFTFTISSLEAEDAATYYCQQSHSWPFTFGPGTKVDIK
notes: Fab, E. coli lysate
B7: SEQ ID NO 10 (Fab, V domains shown)
VH: EVQLTESGGGLVQPGGSLRLSCRASGFIFSNHYMNWVRQAPGKGLEWIGEIRSKSINSATSYAESVKGRFIISRDDNKNDLTLEMNSLKTEDTAEYYCARNYYGSTYDYWGQGTLVTVS
VL: EIVLTQSPDFQSVTPKEKVTITCRASQFVGSSIHWYQQKPDQSPKLLIKYASESMSGVPSRFSGSGSGTDFTFTISSLEAEDAATYYCQQSHSWPFTFGPGTKVDIK
notes: Fab, E. coli lysate
B8: SEQ ID NO 20 (Fab, V domains shown)
VH: EVQLVESGGGLVQPGGSLRLSCRASGFTFSNHYMNWVRQAPGKGLEWIGEIRSKSSNSATSYAESVKGRFIISRDDNGNDLTLEMNSLKTEDTAEYYCAQNYYGSTPDYWGQGTLVTVS
VL: EIVLTQSPDFQSVTPKEKVTITCRASQFVGSSIHWYQQKPDQSPKLLIKYASESMSGVPSRFSGSGSGTDFTFTISSLEAEDAATYYCQQSHSWPFTFGPGTKVDIK
notes: Fab, E. coli lysate
B9: SEQ ID NO 26 (Fab, V domains shown)
VH: EVQLVESGGGLVQPGGSLRLSCRASQFTFSNHYMNWVRQAPGKGLEWIGEIRSKSIYSATHYAESVKGRFIISRDDNKNDLTLEMNSLKTEDTAEYYCARNYYGSTYDYWGQGTLVTVS
VL: EIVLTQSPDFQSVTPKEKVTITCRASQFVGSSIHWYQQKPDQSPKLLIKYASESMSGVPSRFSGSGSGTDFTFTISSLEAEDAATYYCQQSHSWPFTFGPGTKVDIK
notes: Fab, E. coli lysate
B10: SEQ ID NO 21 (Fab, V domains shown)
VH: EVQLTESGGGLVQPGGSLRLSCAASQFTFSNHWMNWVRQAPGKGLEWIGEIRSKSIYGATHYAESVKGRFIISRDDNGNDLYLEMNSLKTEDTAEYYCARNYYGSTYDYWGQGTLVTVS
VL: EIVLTQSPDFQSVTPKEKVTITCRASQFVGSSIHWYQQKPDQSPKLLIKYASESMSGVPSRFSGSGSGTDFTFTISSLEAEDAATYYCQQSHSWPFTFGPGTKVDIK
notes: Fab, E. coli lysate
B11: SEQ ID NO 27 (Fab, V domains shown)
VH: EVQLVESGGGLVQPGGSLRLSCAASQFIFSNHYMNWVRQAPGKGLEWIGEIRSKSSNGATHYAESVKGRFIISRDDNKNDLYLEMNSLKTEDTAEYYCAQNYYGSTPDYWGQGTLVTVS
VL: EIVLTQSPDFQSVTPKEKVTITCRASQFVGSSIHWYQQKPDQSPKLLIKYASESMSGVPSRFSGSGSGTDFTFTISSLEAEDAATYYCQQSHSWPFTFGPGTKVDIK
notes: Fab, E. coli lysate
B12: SEQ ID NO 23 (Fab, V domains shown)
VH: EVQLTESGGGLVQPGGSLRLSCAASGSIFSNHWMNWVRQAPGKGLEWIGEIRSKSIYGATHYAESVKGRFIISRDDNGTDLYLEMNSLKTEDTAEYYCARNYYGSTYDYWGQGTLVTVS
VL: EIVLTQSPDFQSVTPKEKVTITCRASQFVGSSIHWYQQKPDQSPKLLIKYASESMSGVPSRFSGSGSGTDFTFTISSLEAEDAATYYCQQSHSWPFTFGPGTKVDIK
notes: Fab, E. coli lysate
B13: SEQ ID NO 4 (Fab, V domains shown)
VH: EVQLTESGGGLVQPGGSLRLSCRASGFIFSNHWMNWVRQAPGKGLEWIGEIRSKSSYSATSYAESVKGRFIISRDDNKTSLYLEMNSLKTEDTAEYYCAQNYYGSTYDYWGQGTLVTVS
VL: EIVLTQSPDFQSVTPKEKVTITCRASQFVGSSIHWYQQKPDQSPKLLIKYASESMSGVPSRFSGSGSGTDFTFTISSLEAEDAATYYCQQSHSWPFTFGPGTKVDIK
notes: Fab, E. coli lysate
B14: SEQ ID NO 5 (Fab, V domains shown)
VH: EVQLTESGGGLVQPGGSLRLSCAASQFTFSNHWMNWVRQAPGKGLEWIGEIRSKSINSATHYAESVKGRFIISRDDNKNSLTLEMNSLKTEDTAEYYCARNYYGSTYDYWGQGTLVTVS
VL: EIVLTQSPDFQSVTPKEKVTITCRASQFVGSSIHWYQQKPDQSPKLLIKYASESMSGVPSRFSGSGSGTDFTFTISSLEAEDAATYYCQQSHSWPFTFGPGTKVDIK
notes: Fab, E. coli lysate
B15: SEQ ID NO 7 (Fab, V domains shown)
VH: EVQLTESGGGLVQPGGSLRLSCAASQFTFSNHWMNWVRQAPGKGLEWIGEIRSKSSNSATHYAESVKGRFIISRDDNKTDLYLEMNSLKTEDTAEYYCAQNYYGSTYDYWGQGTLVTVS
VL: EIVLTQSPDFQSVTPKEKVTITCRASQFVGSSIHWYQQKPDQSPKLLIKYASESMSGVPSRFSGSGSGTDFTFTISSLEAEDAATYYCQQSHSWPFTFGPGTKVDIK
notes: Fab, E. coli lysate
B16: SEQ ID NO 17 (Fab, V domains shown)
VH: EVQLTESGGGLVQPGGSLRLSCRASGFTFSNHWMNWVRQAPGKGLEWIGEIRSKSSYSATHYAESVKGRFIISRDDNKTSLYLEMNSLKTEDTAEYYCARNYYGSTPDYWGQGTLVTVS
VL: EIVLTQSPDFQSVTPKEKVTITCRASQFVGSSIHWYQQKPDQSPKLLIKYASESMSGVPSRFSGSGSGTDFTFTISSLEAEDAATYYCQQSHSWPFTFGPGTKVDIK
notes: Fab, E. coli lysate
B17: SEQ ID NO 14 (Fab, V domains shown)
VH: EVQLTESGGGLVQPGGSLRLSCAASQFTFSNHWMNWVRQAPGKGLEWIGEIRSKSIYGATHYAESVKGRFIISRDGNGNDLYLEMNSLKTEDTAEYYCARNYYGSTPDYWGQGTLVTVS
VL: EIVLTQSPDFQSVTPKEKVTITCRASQFVGSSIHWYQQKPDQSPKLLIKYASESMSGVPSRFSGSGSGTDFTFTISSLEAEDAATYYCQQSHSWPFTFGPGTKVDIK
notes: Fab, E. coli lysate
B18: SEQ ID NO 25 (Fab, V domains shown)
VH: EVQLVESGGGLVQPGGSLRLSCRASQFIFSNHYMNWVRQAPGKGLEWIGEIRSKSINSATHYAESVKGRFIISRDGNKTSLYLEMNSLKTEDTAEYYCAQNYYGSTPDYWGQGTLVTVS
VL: EIVLTQSPDFQSVTPKEKVTITCRASQFVGSSIHWYQQKPDQSPKLLIKYASESMSGVPSRFSGSGSGTDFTFTISSLEAEDAATYYCQQSHSWPFTFGPGTKVDIK
notes: Fab, E. coli lysate
B19: SEQ ID NO 22 (Fab, V domains shown)
VH: EVQLVESGGGLVQPGGSLRLSCRASGSTFSNHWMNWVRQAPGKGLEWIGEIRSKSSNSATHYAESVKGRFIISRDDNGNSLTLEMNSLKTEDTAEYYCAQNYYGSTYDYWGQGTLVTVS
VL: EIVLTQSPDFQSVTPKEKVTITCRASQFVGSSIHWYQQKPDQSPKLLIKYASESMSGVPSRFSGSGSGTDFTFTISSLEAEDAATYYCQQSHSWPFTFGPGTKVDIK
notes: Fab, E. coli lysate

What follows are binders tested against T1, human tumor necrosis factor-α (rHuTNF-alpha, Biosource) (human, UniProt P01375 77-233) (assay: solid-phase ELISA, Fab lysate on coated rHuTNF-alpha).
T1 construct: Bought recombinant protein coated on ELISA plates; The TNFα of the Biacore assay is not described further; also called TNFα; human TNFα
T1 sequence (P01375 77-233 limits assumed): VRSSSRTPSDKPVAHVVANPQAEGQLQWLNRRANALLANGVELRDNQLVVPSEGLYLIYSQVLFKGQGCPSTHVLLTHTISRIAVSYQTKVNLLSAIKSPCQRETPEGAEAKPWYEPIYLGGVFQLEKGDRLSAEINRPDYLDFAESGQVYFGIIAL
Description: The Fab libraries were cloned into pTrcHis2A (Cat. No. V365-20, Invitrogen, Carlsbad, Calif.). Proteins were expressed in E. coli and solid-phase ELISA was used to assess Fab binding to human TNFα. Briefly, 96-well plates were coated overnight at 4° C. with 1 μg/ml of rHuTNF-alpha (Biosource, Camarillo, Calif.) in Carbonate-bicarbonate buffer, pH9.4. After washing in PBS with 0.05% (w/v) Tween-20, the wells were blocked with 1% (w/v) BSA in PBS for 1 hour at room temperature. After washing, plates were incubated with transformed E. coli cell lysate diluted in the assay buffer (1% BSA and 0.05% Tween-20 in 10 mM PBS) for 2 hours at room temperature. Various concentrations of infliximab (0.5, 1 and 2 ng/ml) were used as positive anti-Human Kappa Light Chain Biotin/anti-penta-His Biotin control. Plates were washed and incubated with ImmunoPure Goat Anti-Human Kappa Chain, Biotin Conjugated (Cat. No. 31780, Pierce Biotechnology, Rockford, Ill.) and Penta-His Biotin Conjugate (Cat. No. 34440, QIAGEN, Valencia, Calif.) diluted 1:2000 in the assay buffer for 1 hour at room temperature. Following another washing step, plates were probed for 1 hour at room temperature with 100 μL/well of Streptavidin POD (Cat. No. 1089153, Roche Applied Science, Indianapolis, Ind.) diluted 1:4000 in the assay buffer. Plates were further washed and then incubated with 3,3′,5,5′-tetramentylbenzidine (TMB, Cat. No. 34028, Pierce Biotechnology) for 30 minutes. Substrate development was stopped by addition of 100 μL/well TMB Stop Solution (Cat. No. 50-85-05, KPL, Gaithersburg, Md.) and the absorbance was measured at 450 nm via an automated plate spectrophotometer.
B1: binds.
B2: binds.
B3: binds.
B4: binds.
B5: binds.
B6: binds.
B7: binds.
B8: binds.
B9: binds.
B10: binds.
B11: binds.
B12: binds.
B13: binds.
B14: binds.
B15: binds.
B16: binds.
B17: binds.
B18: binds.
B19: binds.
